Source: the supplement of paper PMC10567573

B1: GMCL1 (parent)
chain: FCYCAGSHKRKRSSGSFCYCHPDS
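Further: lentivirally expressed fusions sorted by FACS into six bins by GFP to DsRed ratio, PSI derived from sequencing read proportions per bin multiplied by bin number.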

Variants of: B1
Assay: protein stability index of a GFP-peptide fusion (GPS, HEK-293T) (PSI 1-6); higher = more stable
Conditions: c terminus: a fixed tail appended
For FCYCAGEHKRKRSSGSFCYCHPDS [S7E], the protein stability index was 2.2.
For FCYCAGAHKRKRSSGSFCYCHPDS [S7A], the protein stability index was 2.15.
Variant FCYCAGGHKRKRSSGSFCYCHPDS [S7G] has a protein stability index of 1.02.
FCYCAGCHKRKRSSGSFCYCHPDS [S7C] gave a protein stability index of 2.1.
FCYCAGFHKRKRSSGSFCYCHPDS [S7F] gave a protein stability index of 2.54.
Work on FCYCAGDHKRKRSSGSFCYCHPDS [S7D] yielded a protein stability index of 1.55.
Work on FCACAGSHKRKRSSGSFCYCHPDS [Y3A] yielded a protein stability index of 2.37.
For FCVCAGSHKRKRSSGSFCYCHPDS [Y3V], the protein stability index was 2.07.
With FCCCAGSHKRKRSSGSFCYCHPDS [Y3C] the protein stability index was 1.75.
FCTCAGSHKRKRSSGSFCYCHPDS [Y3T] showed a protein stability index of 2.99.
In the case of FCKCAGSHKRKRSSGSFCYCHPDS [Y3K], the protein stability index is reported as 2.82.
FCQCAGSHKRKRSSGSFCYCHPDS [Y3Q] showed a protein stability index of 2.89.
Work on FCECAGSHKRKRSSGSFCYCHPDS [Y3E] yielded a protein stability index of 2.5.
Variant FCPCAGSHKRKRSSGSFCYCHPDS [Y3P] has a protein stability index of 1.76.
For FCDCAGSHKRKRSSGSFCYCHPDS [Y3D], the protein stability index was 2.2.
With FCSCAGSHKRKRSSGSFCYCHPDS [Y3S] the protein stability index was 2.25.
Work on FCMCAGSHKRKRSSGSFCYCHPDS [Y3M] yielded a protein stability index of 2.02.
FCRCAGSHKRKRSSGSFCYCHPDS [Y3R] showed a protein stability index of 2.3.
FCHCAGSHKRKRSSGSFCYCHPDS [Y3H] showed a protein stability index of 1.81.
Work on FCGCAGSHKRKRSSGSFCYCHPDS [Y3G] yielded a protein stability index of 1.7.
FCICAGSHKRKRSSGSFCYCHPDS [Y3I] showed a protein stability index of 2.46.
In the case of FCNCAGSHKRKRSSGSFCYCHPDS [Y3N], the protein stability index is reported as 2.67.
Work on FCFCAGSHKRKRSSGSFCYCHPDS [Y3F] yielded a protein stability index of 2.01.
In the case of FCWCAGSHKRKRSSGSFCYCHPDS [Y3W], the protein stability index is reported as 2.88.
In the case of FCLCAGSHKRKRSSGSFCYCHPDS [Y3L], the protein stability index is reported as 2.96.
For FCYKAGSHKRKRSSGSFCYCHPDS [C4K], the protein stability index was 2.07.
FCYLAGSHKRKRSSGSFCYCHPDS [C4L] gave a protein stability index of 2.81.
In the case of FCYEAGSHKRKRSSGSFCYCHPDS [C4E], the protein stability index is reported as 2.01.
FCYGAGSHKRKRSSGSFCYCHPDS [C4G] gave a protein stability index of 1.7.
In the case of FCYVAGSHKRKRSSGSFCYCHPDS [C4V], the protein stability index is reported as 2.27.
For FCYWAGSHKRKRSSGSFCYCHPDS [C4W], the protein stability index was 2.56.
FCYMAGSHKRKRSSGSFCYCHPDS [C4M] gave a protein stability index of 2.52.
Work on FCYRAGSHKRKRSSGSFCYCHPDS [C4R] yielded a protein stability index of 1.36.
Work on FCYHAGSHKRKRSSGSFCYCHPDS [C4H] yielded a protein stability index of 1.35.
FCYAAGSHKRKRSSGSFCYCHPDS [C4A] gave a protein stability index of 1.29.
With FCYFAGSHKRKRSSGSFCYCHPDS [C4F] the protein stability index was 1.65.
With FCYQAGSHKRKRSSGSFCYCHPDS [C4Q] the protein stability index was 1.01.
Variant FCYNAGSHKRKRSSGSFCYCHPDS [C4N] has a protein stability index of 2.26.
Work on FCYIAGSHKRKRSSGSFCYCHPDS [C4I] yielded a protein stability index of 1.56.
In the case of FCYPAGSHKRKRSSGSFCYCHPDS [C4P], the protein stability index is reported as 1.53.
Variant FCYSAGSHKRKRSSGSFCYCHPDS [C4S] has a protein stability index of 2.55.
FCYDAGSHKRKRSSGSFCYCHPDS [C4D] gave a protein stability index of 1.74.
FCYTAGSHKRKRSSGSFCYCHPDS [C4T] gave a protein stability index of 2.06.
Work on FCYCANSHKRKRSSGSFCYCHPDS [G6N] yielded a protein stability index of 2.92.
FCYCAHSHKRKRSSGSFCYCHPDS [G6H] showed a protein stability index of 1.94.
For FCYCARSHKRKRSSGSFCYCHPDS [G6R], the protein stability index was 2.05.
For FCYCAFSHKRKRSSGSFCYCHPDS [G6F], the protein stability index was 1.92.
Variant FCYCALSHKRKRSSGSFCYCHPDS [G6L] has a protein stability index of 2.44.
With FCYCAPSHKRKRSSGSFCYCHPDS [G6P] the protein stability index was 1.34.
In the case of FCYCAKSHKRKRSSGSFCYCHPDS [G6K], the protein stability index is reported as 1.5.
Work on FCYCAQSHKRKRSSGSFCYCHPDS [G6Q] yielded a protein stability index of 2.
FCYCAWSHKRKRSSGSFCYCHPDS [G6W] showed a protein stability index of 2.84.
Work on FCYCATSHKRKRSSGSFCYCHPDS [G6T] yielded a protein stability index of 1.55.
FCYCAESHKRKRSSGSFCYCHPDS [G6E] showed a protein stability index of 1.86.
FCYCAYSHKRKRSSGSFCYCHPDS [G6Y] gave a protein stability index of 2.59.
With FCYCAISHKRKRSSGSFCYCHPDS [G6I] the protein stability index was 1.54.
Variant FCYCAVSHKRKRSSGSFCYCHPDS [G6V] has a protein stability index of 2.68.
In the case of FCYCAMSHKRKRSSGSFCYCHPDS [G6M], the protein stability index is reported as 2.48.
For FCYCASSHKRKRSSGSFCYCHPDS [G6S], the protein stability index was 2.39.
For FCYCADSHKRKRSSGSFCYCHPDS [G6D], the protein stability index was 1.91.
Variant FCYCACSHKRKRSSGSFCYCHPDS [G6C] has a protein stability index of 2.53.
FQYCAGSHKRKRSSGSFCYCHPDS [C2Q] showed a protein stability index of 3.31.
Variant FPYCAGSHKRKRSSGSFCYCHPDS [C2P] has a protein stability index of 1.53.
For FSYCAGSHKRKRSSGSFCYCHPDS [C2S], the protein stability index was 2.25.
Variant FYYCAGSHKRKRSSGSFCYCHPDS [C2Y] has a protein stability index of 2.03.
Work on FTYCAGSHKRKRSSGSFCYCHPDS [C2T] yielded a protein stability index of 2.22.
FMYCAGSHKRKRSSGSFCYCHPDS [C2M] showed a protein stability index of 1.51.
FGYCAGSHKRKRSSGSFCYCHPDS [C2G] gave a protein stability index of 2.7.
FIYCAGSHKRKRSSGSFCYCHPDS [C2I] gave a protein stability index of 1.94.
In the case of FWYCAGSHKRKRSSGSFCYCHPDS [C2W], the protein stability index is reported as 1.79.
With FNYCAGSHKRKRSSGSFCYCHPDS [C2N] the protein stability index was 1.27.
FHYCAGSHKRKRSSGSFCYCHPDS [C2H] gave a protein stability index of 1.81.
Work on FLYCAGSHKRKRSSGSFCYCHPDS [C2L] yielded a protein stability index of 1.79.
With FRYCAGSHKRKRSSGSFCYCHPDS [C2R] the protein stability index was 3.48.
For FKYCAGSHKRKRSSGSFCYCHPDS [C2K], the protein stability index was 2.06.
Work on FCYCCGSHKRKRSSGSFCYCHPDS [A5C] yielded a protein stability index of 1.65.
With FCYCMGSHKRKRSSGSFCYCHPDS [A5M] the protein stability index was 1.88.
For FCYCEGSHKRKRSSGSFCYCHPDS [A5E], the protein stability index was 2.33.
FCYCRGSHKRKRSSGSFCYCHPDS [A5R] gave a protein stability index of 1.85.
With FCYCTGSHKRKRSSGSFCYCHPDS [A5T] the protein stability index was 1.38.
In the case of FCYCWGSHKRKRSSGSFCYCHPDS [A5W], the protein stability index is reported as 2.26.
FCYCVGSHKRKRSSGSFCYCHPDS [A5V] gave a protein stability index of 2.67.
FCYCSGSHKRKRSSGSFCYCHPDS [A5S] gave a protein stability index of 2.
Variant FCYCHGSHKRKRSSGSFCYCHPDS [A5H] has a protein stability index of 2.26.
Variant FCYCPGSHKRKRSSGSFCYCHPDS [A5P] has a protein stability index of 2.58.
With FCYCNGSHKRKRSSGSFCYCHPDS [A5N] the protein stability index was 2.03.
Work on FCYCGGSHKRKRSSGSFCYCHPDS [A5G] yielded a protein stability index of 1.5.
In the case of FCYCDGSHKRKRSSGSFCYCHPDS [A5D], the protein stability index is reported as 2.38.
Variant FCYCKGSHKRKRSSGSFCYCHPDS [A5K] has a protein stability index of 2.53.
For FCYCFGSHKRKRSSGSFCYCHPDS [A5F], the protein stability index was 2.37.
Variant FCYCIGSHKRKRSSGSFCYCHPDS [A5I] has a protein stability index of 3.03.
FCYCYGSHKRKRSSGSFCYCHPDS [A5Y] gave a protein stability index of 1.89.
For FCYCLGSHKRKRSSGSFCYCHPDS [A5L], the protein stability index was 1.57.
Variant FCYCQGSHKRKRSSGSFCYCHPDS [A5Q] has a protein stability index of 1.94.
